Publication PMC4092016, “Molecular Characterization of the Na^+/H^+-Antiporter NhaA from Salmonella Typhimurium” (PLoS ONE, 2014)

Target: the molecule itself
Test: SEC-MALS; SEC-MALLS with refractive index and UV280 monitoring; two coupled Superdex 200 5/15 columns; 10 mM MES pH 6, 150 mM NaCl, 0.03% β-DDM; 80 µg IMAC-purified STNhaA; protein conjugate analysis separating protein and detergent mass

B1: Na+/H+ antiporter NhaA from Salmonella enterica serovar Typhimurium LT2, recombinant with carboxy-terminal hexahistidine tag (natural protein)
chain: NLGILKHLHRFFSSDASGGIILIIAAALAMLMANMGATSGWYHDFLETPVQLRVGALEINKNMLLWINDALMAVFFLLIGLEVKRELMQGSLASLRQAAFPVIAAIGGMIVPALLYLAFNYSDPVTREGWAIPAATDIAFALGVLALLGSRVPLALKIFLMALAIIDDLGAIVIIALFYTSDLSIVSLGVAAFAIAVLALLNLCGVRRTGVYILVGAVLWTAVLKSGVHATLAGVIVGFFIPLKEKHGRSPAKRLEHVLHPWVAYLILPLFAFANAGVSLQGVTIDGLTSMLPLGIIAGLLIGKPLGISLFCWLALRFKLAHLPQGTTYQQIMAVGILCGIGFTMSIFIASLAFGNVDPELINWAKLGILIGSLLSAVVGYSWLRARLNAPA
notes: five residues that the expression construct adds at the amino-terminus; Na+/H+ antiporter NhaA, S. Typhimurium LT2, wild type; coding region (nhaA, STM0039) amplified from genomic DNA; calculated mass of the construct 44.01 kDa; Integral membrane protein, held in β-DDM detergent; also called STNhaA; STNhaA-His6; source: E. coli NM554 (pTTQ18A1-STNhaA-His6), membranes solubilized in β-DDM, …
- stoichiometry N: 2
